Assay results as given in US20210292396A1.

Key:
Experiment in all cases: cell-based or functional assay
[1] = molecular target: Env of HIV isolate 3873.v1.c24 (clade C) (HIV)
[2] = molecular target: Env of HIV isolate DJ263.8 (clade AG) (HIV)
[3] = molecular target: Env of HIV isolate A07412M1.vrc12 (clade D) (HIV)
[4] = molecular target: Env of HIV isolate DU151.02 (clade C) (HIV)
[5] = molecular target: Env of HIV isolate MB539.2B7 (clade A) (HIV)
[6] = molecular target: Env of HIV isolate SS1196.01 (clade B) (HIV)
[7] = molecular target: HIV Env of isolate 6631.v3.c10 (HIV)
[8] = molecular target: Env of HIV isolate CNE7 (clade BC) (HIV)
[9] = molecular target: HIV Env of isolate ZM176.66 (HIV)
[10] = molecular target: HIV Env of isolate 3817.v2.c59 (HIV)
[11] = molecular target: Env of HIV isolate X1254.c3 (clade G) (HIV)
[12] = molecular target: Env of HIV isolate CH181.12 (clade BC) (HIV)
[13] = molecular target: HIV Env of isolate 25711-2.4 (HIV)
[14] = molecular target: Env of HIV isolate Q23.17 (clade A) (HIV)
[15] = molecular target: Env of HIV isolate TZA125.17 (clade C) (HIV)
[16] = molecular target: Env of HIV isolate 0330.v4.c3 (clade A) (HIV)
[17] = molecular target: Env of HIV isolate ZM215.8 (clade C) (HIV)
[18] = molecular target: Env of HIV isolate ZM135.10a (clade C) (HIV)
[19] = molecular target: HIV Env of isolate CNE15 (HIV)
[20] = molecular target: HIV Env of isolate X2088.c9 (HIV)
[21] = molecular target: Env of HIV isolate Q842.d12 (clade A) (HIV)
[22] = molecular target: Env of HIV isolate R2184.c4 (clade AE) (HIV)
[23] = molecular target: Env of HIV isolate DU422.01 (clade C) (HIV)
[24] = molecular target: HIV Env of isolate 0921.v2.c14 (HIV)
[25] = molecular target: Env of HIV isolate ZM55.28a (clade C) (HIV)
[26] = molecular target: HIV Env of isolate CNE40 (HIV)
Envelope of SVA.MLV = molecular target: Envelope of SVA.MLV
[27] = molecular target: Env of HIV isolate CNE56 (clade AE) (HIV)
[28] = molecular target: Env of HIV isolate 231965.c01 (clade D) (HIV)
[29] = molecular target: Env of HIV isolate HXB2.DG (clade B) (HIV)
[30] = molecular target: Env of HIV isolate CAAN.A2 (clade B) (HIV)
[31] = molecular target: Env of HIV isolate SO18.18 (clade C) (HIV)
[32] = molecular target: Env of HIV isolate CAP45.G3 (clade C) (HIV)
[33] = molecular target: Env of HIV isolate 3468.v1.c12 (clade AD) (HIV)
[34] = molecular target: Env of HIV isolate 3988.25 (clade B) (HIV)
[35] = molecular target: Env of HIV isolate 6545.v4.c1 (clade AC) (HIV)
[36] = molecular target: HIV Env of isolate ZM233.6 (HIV)
[37] = molecular target: Env of HIV isolate T253-11 (clade AG) (HIV)
[38] = molecular target: Env of HIV isolate BI369.9A (clade A) (HIV)
[39] = molecular target: Env of HIV isolate CNE8 (clade AE) (HIV)
[40] = molecular target: Env of HIV isolate CNE14 (clade B) (HIV)
[41] = molecular target: Env of HIV isolate 3301.v1.c24 (clade AC) (HIV)
[42] = molecular target: Env of HIV isolate REJO.67 (clade B) (HIV)
[43] = molecular target: HIV Env of isolate DU123.06 (HIV)
[44] = molecular target: HIV Env of isolate ZM215.8 (HIV)
[45] = molecular target: Env of HIV isolate 271-11 (clade AG) (HIV)
[46] = molecular target: Env of HIV isolate 6631.v3.c10 (clade C) (HIV)
[47] = molecular target: Env of HIV isolate 45_01dG5 (clade B) (HIV)
[48] = molecular target: Env of HIV isolate 0439.v5.c1 (clade A) (HIV)
[49] = molecular target: Env of HIV isolate ZM106.9 (clade C) (HIV)

B1: ePGT121.18 (ePGT121.18.H1 VH and ePGT121.17.L1 VL) (antibody, V domains shown)
VH: QMQLQESGPGLVKPGETLSLTCSVSGASISSSYWSWLRETPGKGLEWIGYTHHSGDTNYAPSLKSRVHLGLHPSKNQVSLSLTSVTAADTAVYYCARTLHGRRIYGVVAFNEYYTYFYWPTWGKGTQVTVSS
VL: SDISVAPGETVRITCGGESIGSRAVQWYQHRPGQAPRLIIYNNQDRPPGIPERFSGSPDIDFGTTATLTISNVEAGDEATYYCHIWDSRRPTNWELGPGTTLTVL
IC50, pseudovirus neutralization [1]: 0.003 µg/mL | IC50, pseudovirus neutralization [2]: 0.002 µg/mL | IC50, pseudovirus neutralization [3]: 0.003 µg/mL | IC50, pseudovirus neutralization [4]: 0.001 µg/mL | IC50, pseudovirus neutralization [5]: > 50 µg/mL | IC50, pseudovirus neutralization [6]: 0.002 µg/mL | IC80, pseudovirus neutralization (M1) [7]: 0.04 µg/mL | IC80, pseudovirus neutralization (M2) [7]: 0.044 µg/mL | IC50, pseudovirus neutralization [8]: 0.003 µg/mL | IC80, pseudovirus neutralization (M1) [9]: 0.091 µg/mL | IC80, pseudovirus neutralization (M2) [9]: 0.106 µg/mL | IC80, pseudovirus neutralization (M1) [10]: 2.58 µg/mL | IC80, pseudovirus neutralization (M2) [10]: 6.79 µg/mL | IC50, pseudovirus neutralization [11]: 0.002 µg/mL | IC50, pseudovirus neutralization [12]: 0.001 µg/mL | IC80, pseudovirus neutralization (M1) [13]: 0.005 µg/mL | IC80, pseudovirus neutralization (M2) [13]: 0.006 µg/mL | IC50, pseudovirus neutralization [14]: 0.002 µg/mL | IC50, pseudovirus neutralization [15]: 0.028 µg/mL | IC50, pseudovirus neutralization [16]: 0.003 µg/mL | IC50, pseudovirus neutralization [17]: 0.006 µg/mL | IC50, pseudovirus neutralization [18]: 0.026 µg/mL | IC80, pseudovirus neutralization (M1) [19]: 36.4 µg/mL | IC80, pseudovirus neutralization (M2) [19]: > 50 µg/mL | IC80, pseudovirus neutralization (M1) [20]: 0.005 µg/mL | IC80, pseudovirus neutralization (M2) [20]: 0.009 µg/mL | IC50, pseudovirus neutralization [21]: 0.002 µg/mL | IC50, pseudovirus neutralization [22]: > 50 µg/mL | IC50, pseudovirus neutralization [23]: 0.006 µg/mL | IC80, pseudovirus neutralization (M1) [24]: 1.03 µg/mL | IC80, pseudovirus neutralization (M2) [24]: 1.49 µg/mL | IC50, pseudovirus neutralization [25]: 0.005 µg/mL | IC80, pseudovirus neutralization (M1) [26]: 0.047 µg/mL | IC80, pseudovirus neutralization (M2) [26]: 0.047 µg/mL | IC80, pseudovirus neutralization (M1) (Envelope of SVA.MLV): > 50 µg/mL | IC80, pseudovirus neutralization (M2) (Envelope of SVA.MLV): > 50 µg/mL | IC50, pseudovirus neutralization [27]: > 50 µg/mL | IC50, pseudovirus neutralization [28]: 9.17 µg/mL | IC50, pseudovirus neutralization [29]: 0.003 µg/mL | IC50, pseudovirus neutralization [30]: 0.002 µg/mL | IC50, pseudovirus neutralization [31]: 0.003 µg/mL | IC50, pseudovirus neutralization [32]: 1.74 µg/mL | IC50, pseudovirus neutralization [33]: 0.001 µg/mL | IC50, pseudovirus neutralization [34]: 0.003 µg/mL | IC50, pseudovirus neutralization [35]: > 50 µg/mL | IC80, pseudovirus neutralization (M1) [36]: 0.024 µg/mL | IC80, pseudovirus neutralization (M2) [36]: 0.024 µg/mL | IC50, pseudovirus neutralization [37]: 0.004 µg/mL | IC50, pseudovirus neutralization [38]: 0.001 µg/mL | IC50, pseudovirus neutralization [39]: > 50 µg/mL | IC50, pseudovirus neutralization [40]: 0.001 µg/mL | IC50, pseudovirus neutralization [41]: 0.003 µg/mL | IC50, pseudovirus neutralization [42]: 0.731 µg/mL | IC80, pseudovirus neutralization (M1) [43]: 0.006 µg/mL | IC80, pseudovirus neutralization (M2) [43]: 0.005 µg/mL | IC80, pseudovirus neutralization (M1) [44]: 0.023 µg/mL | IC80, pseudovirus neutralization (M2) [44]: 0.026 µg/mL | IC50, pseudovirus neutralization [45]: > 50 µg/mL | IC50, pseudovirus neutralization [46]: 0.01 µg/mL | IC50, pseudovirus neutralization [47]: 0.001 µg/mL | IC50, pseudovirus neutralization [48]: 5.67 µg/mL | IC50, pseudovirus neutralization [49]: 0.001 µg/mL

B2: ePGT121.15.H2.L1 (antibody, V domains shown)
VH: QMQLQESGPGLVKPGETLSLTCSVSGASISSSYWSWLRETPGKGLEWIGYTHHSGDTNYAPSLKSRVHLGLHPSKNQVSLSLTSVTAADTAVYYCARTLHGRRIYGVVAFNEWFTYFYWEVWGKGTQVTVSS
VL: SDISVAPGETVRISCGGESIGSRAVQWYQHRAGQAPKLIIYNNQDRPPGIPERFSGSPDIDFGTTATLTITNVEAGDEATYYCHIWDSRRPTNWVFGGGTTLTVL
neutralization (Table 6 value) [10]: 0.00328

B3: ePGT121.18.17 (ePGT121.18.H17 VH and ePGT121.17.L1 VL) (antibody, V domains shown)
VH: QMQLQESGPGLVKPGETLSLTCSVSGASISSSYWSWLRETPGKGLEWIGYTHHSGDTNYAPSLKSRVTIGLDPSKNQVSLSLTSVTAADTAVYYCARTLHGRRIYGVVAFNEYYTYFYWPTWGKGTQVTVSS
VL: SDISVAPGETVRITCGGESIGSRAVQWYQHRPGQAPRLIIYNNQDRPPGIPERFSGSPDIDFGTTATLTISNVEAGDEATYYCHIWDSRRPTNWELGPGTTLTVL
IC50, pseudovirus neutralization [1]: 0.011 µg/mL | IC50, pseudovirus neutralization [2]: 0.014 µg/mL | IC50, pseudovirus neutralization [3]: 0.004 µg/mL | IC50, pseudovirus neutralization [4]: 0.003 µg/mL | IC50, pseudovirus neutralization [5]: > 50 µg/mL | IC50, pseudovirus neutralization [6]: 0.004 µg/mL | IC80, pseudovirus neutralization [7]: 0.269 µg/mL | IC50, pseudovirus neutralization [8]: 0.007 µg/mL | IC80, pseudovirus neutralization [9]: 0.454 µg/mL | IC80, pseudovirus neutralization [10]: 17.9 µg/mL | IC50, pseudovirus neutralization [11]: 0.006 µg/mL | IC50, pseudovirus neutralization [12]: 0.004 µg/mL | IC80, pseudovirus neutralization [13]: 0.017 µg/mL | IC50, pseudovirus neutralization [14]: 0.006 µg/mL | IC50, pseudovirus neutralization [15]: 0.18 µg/mL | IC50, pseudovirus neutralization [16]: 0.012 µg/mL | IC50, pseudovirus neutralization [17]: 0.016 µg/mL | IC50, pseudovirus neutralization [18]: 0.145 µg/mL | IC80, pseudovirus neutralization [19]: > 50 µg/mL | IC80, pseudovirus neutralization [20]: 0.017 µg/mL | IC50, pseudovirus neutralization [21]: 0.007 µg/mL | IC50, pseudovirus neutralization [22]: > 50 µg/mL | IC50, pseudovirus neutralization [23]: 0.013 µg/mL | IC80, pseudovirus neutralization [24]: 3.48 µg/mL | IC50, pseudovirus neutralization [25]: 0.012 µg/mL | IC80, pseudovirus neutralization [26]: 0.13 µg/mL | IC80, pseudovirus neutralization (Envelope of SVA.MLV): > 50 µg/mL | IC50, pseudovirus neutralization [27]: > 50 µg/mL | IC50, pseudovirus neutralization [28]: > 50 µg/mL | IC50, pseudovirus neutralization [29]: 0.016 µg/mL | IC50, pseudovirus neutralization [30]: 0.004 µg/mL | IC50, pseudovirus neutralization [31]: 0.004 µg/mL | IC50, pseudovirus neutralization [32]: 8.91 µg/mL | IC50, pseudovirus neutralization [33]: 0.004 µg/mL | IC50, pseudovirus neutralization [34]: 0.004 µg/mL | IC50, pseudovirus neutralization [35]: > 50 µg/mL | IC80, pseudovirus neutralization [36]: 0.065 µg/mL | IC50, pseudovirus neutralization [37]: 0.025 µg/mL | IC50, pseudovirus neutralization [38]: 0.004 µg/mL | IC50, pseudovirus neutralization [39]: > 50 µg/mL | IC50, pseudovirus neutralization [40]: 0.003 µg/mL | IC50, pseudovirus neutralization [41]: 0.009 µg/mL | IC50, pseudovirus neutralization [42]: 1.43 µg/mL | IC80, pseudovirus neutralization [43]: 0.013 µg/mL | IC80, pseudovirus neutralization [44]: 0.048 µg/mL | IC50, pseudovirus neutralization [45]: > 50 µg/mL | IC50, pseudovirus neutralization [46]: 0.063 µg/mL | IC50, pseudovirus neutralization [47]: 0.003 µg/mL | IC50, pseudovirus neutralization [48]: > 50 µg/mL | IC50, pseudovirus neutralization [49]: 0.004 µg/mL
